According to a protein production outcome set (Wang et al. 2014):
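Also: failed if final PepcDB status was selected cloned or expressed and not failed if soluble or beyond.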

Experiment: label from the status in PepcDB records
In the case of “MATRRLTDAFLLLRNNSIQNRQLLAEQVSSHITSSPLHSRSIAALADDRMALVSGISLDPEAAIGVTKRPPPKWVDGVDEIQYDVGRIKQKMKELASLHDKHLNRPTLDDSSEEEHAIEITTQEITQLFHRCQRAVQALPSRARACSEQEGRLLGNVVASLAQALQELSTSFRHAQSGYLKRMKNREERSQHFFDTSVPLMDDGDDNTLYHRGFTEDQLVLVEQNTLMVEEREREIRQIVQSISDLNEIFRDLGAMIVEQGTVLDRIDYNVEQSCIKTEDGLKQLHKAEQYQKKNRKMLVILILFVIIIVLIVVLVGVKSR”, the protein production is reported as “failed”. For “MATRTQARGAVVELLYAFESGNEEIKKIASSMLEEKKIKNNQLAFALSLFNGVLEKINEIDALIEPHLKDWDFKRLGSMEKAILRLGAYEIGFTPTQNPIIINECIELGKLYAEPNTPKFLNAILDSLSKKLTQKPLN”, the protein production was “failed”. For “MATVTKAPKKQIQFADDMQEFTKFPTKTGRRSLSRSISQSSTDSYSSAASYTDSSDDEVSPREKQQTNSKGSSNFCVKNIKQAEFGRREIEIAEQDMSALISLRKRAQGEKPLAGAKIVGCTHITAQTAVLIETLCALGAQCRWSACNIYSTQNEVAAALAEAGVAVFAWKGESEDDFWWCIDRCVNMDGWQANMILDDGGDLTHWVYKKYPNVFKKIRGIVEESVTGVHRLYQLSKAGKLCVPAMNVNDSVTKQKFDNLYCCRESILDGLKRTTDVMFGGKQVVVCGYGEVGKGCCAALKALGAIVYITEIDPICALQACMDGFRVVKLNEVIRQVDVVITCTGNKNVVTREHLDRMKNSCIVCNMGHSNTEIDVTSLRTPELTWERVRSQVDHVIWPDGKRVVLLAEGRLLNLSCSTVPTFVLSITATTQALALIELYNAPEGRYKQDVYLLPKKMDEYVASLHLPSFDAHLTELTDDQAKYLGLNKNGPFKPNYYRY”, the protein production was “failed”. In the case of “MAVAAAKYTTGFWINTIVIILIIAYLVYQLYLYWKRGKISTQLDDDEFRAGMRKAQVIDVREKKEFDAGHILGARNIPYSQMKNRTQELRSDLPVYLYDQGRTFSGRAAMLLSKKGFTQLYILKNGYQRWTGKTKKTKY”, the protein production is reported as “failed”. In the case of “MAVALLGNRDGQAFLATLFDLARRGHVTLRHDREDQAFGTTDVVRLETHPAPNDLSDFERRLVDTLGEYETLDDFWSDTRSFRSDVMSDVRGVLFERGWMENHTVRSGLLLGGALVALLGGFAAVVTGDSALRFYLLFGGMGVSLGGFIAAVRQYTWTEDGARRAMALRAYLDHEKSEIERLRETSPARAAERLVDALPWLLLHDEVSRAWIEETKEALDAADEVPELPDGFVSLVETEGSARAPVAAFLPVVTVMGAVESSSAGAVGAAGASGAAGAAGGGAGAAGAA”, the protein production is reported as “failed”. For “MAVDMFIKIGDVKGESKDKTHAEEIDVLAWSWGMSQSGSMHMGGGGGAGKVNVQDLSFTKYIDKSTPNLMMACSSGKHYPQAKLTIRKAGGENQVEYLIITLKEVLVSSVSTGGSGGEDRLTENVTLNFAQVQVDYQPQKADGAKDGGPVKYGWNIRQNVQA”, the protein production was “not failed”. With “MAVEEVIEMQGLSLDPTSHRVMAGEEPLEMGPTEFKLLHFFMTHPERVYSREQLLNHVWGTNVYVEDRTVDVHIRRLRKALEPGGHDRMVQTVRGTGYRFSTRF” the protein production was “not failed”. With “MAVKHASAPKAYINITGLGFAKLTKEGAELKYSDITKTRGLQKIGVETGGELKTAYADGGPIESGNTDGEGKISLQMHAFPKEIRKIVFNEDYDEDGVYEEKQGKQNNYVAVWFRQERRDGTFRTVLLPKVMFTNPKIDGETAEKDWDFSSEEVEGEALFPLVDNKKSVRKYIFDSANMTNHGGDGEKGEEAFLKKILGEEYTGNVTEDNEETLLEHHHHHH” the protein production was “not failed”. With “MAVLGQLGFMIAFLSGGVAAGHFGLLTERRTDILTTLVFTVALPALIFRSTYDRPLQEIISPALLGGFWVIIALTITLGWLVHRRLESADRRSVSVVQSYHSNMGFLGLPLVAATMGSEATAVASVILGIGAVTHVPVTVFLLVRINGSDASLLSECRKLVTNPVLIALAAGITASVLSLSVPESLISALGPPAELALPVALLCIGATLDTDLPVSDLQKTVSVVGLKVLWMPALAWLVYSSLSMDTTALGAAVVMLGTPTAVSTYVYTTELGGDAAFASLNVFTSTVVSIGTLSLLVWLFT” the protein production was “failed”. For “MAVNVYSTSVTSENLSRHDMLAWVNDSLHLNYTKIEQLCSGAAYCQFMDMLFPGCVHLRKVKFQAKLEHEYIHNFKVLQAAFKKMGVDKIIPVEKLVKGKFQDNFEFIQWFKKFFDANYDGKDYNPLLARQGQDVAPPPNPGDQIF”, the protein production was “not failed”. For “MAVPPVEMYSGSFWNRMRKPLPLRTQVIRFTVVFVIVSFILAVALQITHERMPDPKVTKPLPDLGFELLTKVPGMYVLADCCIGFLNILSVFTAFKLYLLHRHCVGSGEPELPCNIPGVSRFFLSVWLCKENCRIELRNIHTIAWIRFITSYALLLLFRSAVIVMTSLPAPDDLCQDPPKIENPVKNVILTVLTAGGGSIHCGDLMYSGHTVILTLHLMFHWIYGAMVHWSFRPVVTVVAIFGYYCIVASRFHYTDDVLVAIYLTIATFIAVGHNADGAPWQLQLFIRWWPCCGANSREVTEDSQPVMVAFKSEELDEMNGVLEGRQKKHGGVGDGESLMFKCGAYVVSHHHHHH”, the protein production was “not failed”. For “MAVPTELDGGSVKETAAEEESRVLAPGAAPFGNFPHYSRFHPPEQRLRLLPPELLRQLFPESPENGPILGLDVGCNSGDLSVALYKHFLSLPDGETCSDASREFRLLCCDIDPVLVKRAEKECPFPDALTFITLDFMNQRTRKVLLSSFLSQFGRSVFDIGFCMSITMWIHLNHGDHGLWEFLAHLSSLCHYLLVEPQPWKCYRAAARRLRKLGLHDFDHFHSLAIRGDMPNQIVQILTQDHGMELICCFGNTSWDRSLLLFRAKQTIETHPIPESLIEKGKEKNRLSFQKQ”, the protein production was “failed”. With “MAVRFASLGSGSDGNALLVESTDGTTSTRILLDCGFGIRETVRRLERLGCAPASLDAILVTHEHGDHIGSAYAFAAKYSVPVWTSHGTYRATASLRGADRAAVRFCRADDAFSIGDLRILPYTVPHDAREPLQFIFDDGARRLGVLTDAGMSTEYLCGHLTGLHAFVLECNHDREMLANSAYPWSLKQRIGGDFGHLANDIAAAILARVRHDGLHTVVAAHLSKQNNTPELAAAAIASALGVPAGDVPIADQEAGLGWQAV” the protein production was “failed”. In the case of “MAVSLPNSFLQISPCVPSLQLRKPVMAAVKGGKQSVRRSSNTVVQITCRKKELHPEFHEDAKVYCNGELVMTTGGTKKEYVVDVWSGNHPFYLGNRSALMVDADQVEKFRKRFAGLSEIMEIPVLKGEIIMPTKKSKGPKGKKK”, the protein production is reported as “failed”. With “MAVSNDITFADYFYQWYEVNKLPHVSESTKRHYESAYKHIKDHFRHKLLKDIKRTEYQKFLNEYGLTHSYETIRKLNSYIRNAFDDAIHEGYVIKNPTYKAELHASVPAKTELEHHHHHH” the protein production was “not failed”. For “MAVTLRLTNSLAFSSHPLTSSVLFRGSKSIGTITKIASTIRTVKMAAFAGSDSETTSSTSRVIDSHLHIWASPQEAETYPYFPGQEPTLTGDVNFLLKNMEEARVDGALIVQPINHKFDHSLVTRSRPF”, the protein production was “failed”. For “MAVYTDITEDELRNFLTQYDVGSLTSYKGIAEGVENSNFLLHTTKDPLILTLYEKRVEKNDLPFFLGLMQHLAAKGLSCPLPLPRKDGELLGELSGRPAALISFLEGMWLRKPEAKHCREVGKALAAMHLASEGFEIKRPNALSVDGWKVLWDKSEERADEVEKGLREEIRPEIDYLAAHWPKDLPAGVIHADLFQDNVFFLGDELSGLIDFYFACNDLLAYDVSICLNAWCFEKDGAYNVTKGKALLEGYQSVRPLSEAELEALPLLSRGSALRFFLTRLYDWLTTPAGALVVKKDPLEYLRKLRFHRTIANVAEYGLAGE”, the protein production was “not failed”. In the case of “MAYDDMGFPVSVSGPARRVVSLVPSLTEAIAHTRREALVGATDWCTHPAGLDVARVRGTKNPDRAAIAALRPDLVIANKEENRELDVRMLRAAGIPVWVTVIQTVPQALDSLTRLFTEALCWPLPDWLVEARRLWSHPLPPVRARVAIPVWRDPWMVVGSATFTGDLARRLGLANVFADHPERYPKVALADIDRDDVDLVVLPDEPYAFTPQDGPEAFRCAPTVLVSGRLLTWYGPSLLHAKEGLAALVQ”, the protein production is reported as “failed”. In the case of “MAYDIERYLDIRGAGDPTYGPTGELAFTLGTTGTAQVWALGAPGAWPTQLTFHDERVQWASFSPTREELAYGMDTGGDEFTQLHRVSGDGSEDVQLTAFPDAKHDWGGWSHDGDRIAYTANRRDASRFDVYVQGRDEAGANADCVRVGDTFDLPSVVGWSPSDDRLLVVDTHSNFDQDVAVLDVDTGEITRATAGLDADTRFSWVAWAPDGGGVYVTTDHDADTRYLGLLDPETGAISRVADGGDWPIEAVVTAHDAGRLAYVRNRDGYSELTIADAAGTTLTEQPTPELPDGVIRGLSWGPDGDTLAVVVSAATENPNVFVVDVATGAATQWTNAATAGIPKSTFREPELVRYETFDGREIPALFTRPDGDGPHPVIVDFHGGPEGQRRPSFLSLRQYFVDNGYAVFEPNVRGSSGYGATYMNLDNVRNRMDAVADGKAGVEWLTARTDIDADRVVAYGGSYGGFMVLASLTEYPELWAAGVDIVGIANFVTFLENTGDWRREHRESEYGSLDADREFLESISPTNNADRIRAPLLVLHGANDPRVPVGEAERIVEQASAHVPVEKHVFDDEGHGFSKRANKQAAYRAVVDFLDDHA”, the protein production is reported as “failed”. In the case of “MAYDLWYWDGIPGRGEFVRLALEAGKIPYRDRAREPGEDMLDDMRRRRDTPPFAPPYLVADGMTIAQTANILLFLGVEHGLAPPDRAGRLWVNQLQLTIADLTAEAHDVHHPVAAGLYYEDQQDVALRRAADFRETRMPKFMQYFEQALDRPGGWLTDMGRWSYADLSLYHVVEGLLHAFPRRMRTLVHRYPRLMALHARVAELPELRGYLASDRRLPFGDGIFRHYPELDGA”, the protein production is reported as “not failed”. For “MAYDNRAVVRKVLLITLLLNLFVMGLKAFVGYLTGSLSLLADALHSVTDSANNILGLFASSFSSPYPDREHPYGHHKFEAVGALGIAAFLGIACFEILQGAIERILKGGAPVRISPPELWLLLIVLGVNIFVAFYERNEGKRVGSQILIADATHTMSDVWVTISVIFGLIGVWLGYQWLDIVLAFPVALLVFWSGWSVLKENLPWLVDQMAIAPEAIHAIAVAVPGVINCHDIASRGVLGRQIFMEMHLIVDAPDVETAHRITEEVERRLEERFSPVRIIIHVEPPNYESEQISFETGSK”, the protein production was “failed”. With “MAYVKERIYESMFIIAPNVPEEERENLVERVKKIIEERVKGKIDKVERMGMRKFAYEIKKFNEGDYTVIYFRCDGQNLQELENFYRVTPEIIRWQTFRRFDLEKKERKAQREKAAAEATESSEGGSED” the protein production was “not failed”. In the case of “MCAFNGAALTALGISHSALLAHSPQGCEYLVNNAFASQECDYMETMTLCTKLCVDEIVHGGEDILARTIREVKDLPISALFVLSACGPEIVGDDIVGVCEALQPEVKFRLVPIESAGFRGSQYDGIDIAMDTILKKLVKDDVEKIPGSVCLEHHHHHH”, the protein production is reported as “failed”. In the case of “MCARPCRPTNLPTRFSMSNSDPSPTLEGNYDLLFRFAFWLFVGAISFSVAGMLLLRLVPSSMAIFGPIYTKLVKTPTWTFMTLLALLPLLMYGPTLGWKKISLIAAWGCIIGGASELIGTTGWLNVGGIALPFGEYEYTQWLGPKIAGHVPYFIPPSWFAMSIVSLDLARRVTTQRVGSLLLGTLFMVLWDVSLDPAMNQAFPFWEYGVDGVFFGMPLSNWAGWAGVTFVILLGYEYIGKGAPIQNEWAPWVYALNCIFPLSICLLRDVYLPALIGGLATLVPFLLLWRYNPDSLKRSVSLFRG”, the protein production is reported as “failed”. For “MCCCVQFLMSFSSVPSAMPAIDPDALESQVAQRLDPHGSDGVQSALSGVVDLEALEERRYGEVLGAIDQRLTQSRYSLLSMVVAGIYFGLLVGLWLVDGSTWSRIALWLAPTLLVAVYGLYATHQTVRQIRHLSETRALLQILMNGPSADG”, the protein production was “failed”.
